The assay addresses BCG3185c (Mycobacterium tuberculosis (title); called a Bacillus Calmette-Guérin (BCG) protein). Kind of assay: SEC.

For the substance BCG3185c (enzyme), the stoichiometry N is 3.

Source of the values: article doi:10.1101/2024.05.14.591795.
